Reference: article PMC11633057, “Targeting MarA N‐terminal domain dynamics to prevent DNA binding”
Positions count from the first letter of the chain named.

Experiments:
[1] = target: T1, MarA I16C/M47C I14C;M45C (Escherichia coli MG1655) (UniProt P0ACH5); test: EMSA; details: EMSA: 20 mM Hepes pH 8, 100 mM MgCl2, 100 mM EDTA, 0.3 mg/mL BSA, +/- DTT, 0.8 uM MarA, DNA 15 nM (200 bp) or 200 nM (30 bp), 20 min 37 C, 8% native gel, SYBR …
T1 sequence: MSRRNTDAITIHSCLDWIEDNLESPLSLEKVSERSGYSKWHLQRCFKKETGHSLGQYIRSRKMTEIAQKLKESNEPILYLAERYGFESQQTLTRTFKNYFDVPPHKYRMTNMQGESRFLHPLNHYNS

[2] = target: T2, MarA WT (Escherichia coli MG1655) (UniProt P0ACH5); test: EMSA; details: EMSA: 20 mM Hepes pH 8, 100 mM MgCl2, 100 mM EDTA, 0.3 mg/mL BSA, +/- DTT, 0.8 uM MarA, DNA 15 nM (200 bp) or 200 nM (30 bp), 20 min 37 C, 8% native gel, SYBR …
T2 sequence: T1 sequence with C14I, C45M

[3] = target: T3, MarA I13C/M47C I11C;M45C (Escherichia coli MG1655) (UniProt P0ACH5); test: EMSA; details: EMSA: 20 mM Hepes pH 8, 100 mM MgCl2, 100 mM EDTA, 0.3 mg/mL BSA, +/- DTT, 0.8 uM MarA, DNA 15 nM (200 bp) or 200 nM (30 bp), 20 min 37 C, 8% native gel, SYBR …
T3 sequence: T1 sequence with I11C, C14I

[4] = target: T4, MarA S62C/L121C S60C;L119C (Escherichia coli MG1655) (UniProt P0ACH5); test: EMSA; details: EMSA: 20 mM Hepes pH 8, 100 mM MgCl2, 100 mM EDTA, 0.3 mg/mL BSA, +/- DTT, 0.8 uM MarA, DNA 15 nM (200 bp) or 200 nM (30 bp), 20 min 37 C, 8% native gel, SYBR …
T4 sequence: T1 sequence with C14I, C45M, S60C, L119C

[5] = target: T5, MarA I16C/M47C (Escherichia coli MG1655, UniProt P0ACH5 1-127, I14C;M45C); test: EMSA; 0.5 or 1 mM DTT; EMSA: 20 mM Hepes pH 8, 100 mM MgCl2, 100 mM EDTA, 0.3 mg/mL BSA, +/- DTT, 0.8 uM MarA, DNA 15 nM (200 bp) or 200 nM (30 bp), 20 min 37 C, 8% native gel, SYBR green; details: protein: recombinant; tags: N-terminal 6xHis (pET-15b); blunt
T5 sequence: T1 sequence

[6] = target: T6, MarA WT (Escherichia coli MG1655, UniProt P0ACH5 1-127); test: EMSA; no DTT; EMSA: 20 mM Hepes pH 8, 100 mM MgCl2, 100 mM EDTA, 0.3 mg/mL BSA, +/- DTT, 0.8 uM MarA, DNA 15 nM (200 bp) or 200 nM (30 bp), 20 min 37 C, 8% native gel, SYBR green; details: protein: recombinant; tags: N-terminal 6xHis (pET-15b); blunt
T6 sequence: T1 sequence with C14I, C45M

[7] = target: T7, MarA I13C/M47C (Escherichia coli MG1655, UniProt P0ACH5 1-127, I11C;M45C); test: EMSA; no DTT (disulfide); EMSA: 20 mM Hepes pH 8, 100 mM MgCl2, 100 mM EDTA, 0.3 mg/mL BSA, +/- DTT, 0.8 uM MarA, DNA 15 nM (200 bp) or 200 nM (30 bp), 20 min 37 C, 8% native gel, SYBR green; details: protein: recombinant; tags: N-terminal 6xHis (pET-15b); blunt
T7 sequence: T1 sequence with I11C, C14I

GTTATCCTGTGTATCTGGGTTATCAGCGAAAAGTATAAGGGGTAAACAAGGATAAAGTGTCACTCTTTAGCTAGCCTTGCATCGCATTGAACAAAACTTGAACCGATTTAGCAAAACGTGGCATCGGTCAATTCATTCATTTGACTTATACTTGCCTGGGCAATATTATCCCCTGCAACTAATTACTTGCCAGGGCAAC (double strand) [marRAB 200-bp fragment]
binds: binding [1] | binding [2] | binding [3] | binding [4]

B1: marRAB 30-bp marbox (dsDNA)
DNA 1: GAACCGATTTAGCAAAACGTGGCATCGGTC
DNA 2: GACCGATGCCACGTTTTGCTAAATCGGTTC
binds: binding result [5] | binding result [6] | binding result [7]
